According to paper PMC5241803, “Structural basis for the recognition and degradation of host TRIM proteins by Salmonella effector SopA” (Nature Communications, 2017):

T1: GST-SopA (S. Typhimurium, UniProt Q8ZNR3 1-782)
T1 construct: also called recombinant SopA; source: E. coli BL21 (DE3), purified on glutathione sepharose 4B beads; not shown: GST, N-terminal, kept
T1 sequence: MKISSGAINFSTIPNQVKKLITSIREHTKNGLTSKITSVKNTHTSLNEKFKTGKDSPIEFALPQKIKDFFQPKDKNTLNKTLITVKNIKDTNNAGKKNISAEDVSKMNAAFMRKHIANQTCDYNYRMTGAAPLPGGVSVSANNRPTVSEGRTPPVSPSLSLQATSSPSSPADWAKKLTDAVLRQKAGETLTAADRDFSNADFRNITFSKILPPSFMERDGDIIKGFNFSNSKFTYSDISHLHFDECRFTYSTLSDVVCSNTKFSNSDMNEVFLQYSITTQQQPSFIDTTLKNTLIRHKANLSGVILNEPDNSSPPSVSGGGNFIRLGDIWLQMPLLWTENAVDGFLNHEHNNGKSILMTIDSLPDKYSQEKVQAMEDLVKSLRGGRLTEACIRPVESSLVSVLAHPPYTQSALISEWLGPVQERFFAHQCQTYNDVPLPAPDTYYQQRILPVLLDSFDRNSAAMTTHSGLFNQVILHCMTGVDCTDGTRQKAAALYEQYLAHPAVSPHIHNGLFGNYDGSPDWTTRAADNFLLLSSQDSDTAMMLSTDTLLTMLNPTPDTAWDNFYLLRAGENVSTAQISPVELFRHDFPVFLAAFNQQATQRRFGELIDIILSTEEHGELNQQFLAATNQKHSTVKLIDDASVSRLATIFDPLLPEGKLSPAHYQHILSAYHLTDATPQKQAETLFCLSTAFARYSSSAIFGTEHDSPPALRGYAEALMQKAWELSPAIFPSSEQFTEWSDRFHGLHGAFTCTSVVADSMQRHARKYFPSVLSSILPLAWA

T2: SopA (163–782) (S. Typhimurium, UniProt Q8ZNR3 163-782)
T2 construct: also called SopA WT; source: bacterially expressed, purified (Talon beads, size exclusion)
T2 sequence: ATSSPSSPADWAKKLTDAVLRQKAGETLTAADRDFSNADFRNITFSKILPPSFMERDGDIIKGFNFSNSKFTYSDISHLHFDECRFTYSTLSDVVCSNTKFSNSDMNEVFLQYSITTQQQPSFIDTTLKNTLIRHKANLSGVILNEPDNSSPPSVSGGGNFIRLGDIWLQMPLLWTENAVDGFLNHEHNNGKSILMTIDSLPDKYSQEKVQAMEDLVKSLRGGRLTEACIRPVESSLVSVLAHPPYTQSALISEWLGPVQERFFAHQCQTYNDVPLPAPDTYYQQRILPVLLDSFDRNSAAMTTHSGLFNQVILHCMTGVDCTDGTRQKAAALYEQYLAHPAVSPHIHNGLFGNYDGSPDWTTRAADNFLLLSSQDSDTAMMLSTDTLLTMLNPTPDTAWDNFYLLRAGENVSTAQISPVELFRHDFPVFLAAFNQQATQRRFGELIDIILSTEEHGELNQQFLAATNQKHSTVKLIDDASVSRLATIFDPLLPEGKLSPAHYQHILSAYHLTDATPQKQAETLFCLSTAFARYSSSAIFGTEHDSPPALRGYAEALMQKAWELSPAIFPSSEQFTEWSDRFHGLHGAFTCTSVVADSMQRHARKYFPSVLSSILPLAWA


Experiments:
GST-SopA = target: T1, GST-SopA; assay: pull-down; details: both partners purified
SopA (163–782) = target: T2, SopA (163–782); assay: ITC; 1 mM TRIM56 (1–94) injected into 20 μM SopA (163–782) in the cell, 25 °C, 10 mM HEPES, 100 mM NaCl, 1 mM TCEP; VP-ITC; details: both partners purified

| Binder | binding result (GST-SopA) | Kd (SopA (163–782)) [µM] |
| --- | --- | --- |
| MBP-TRIM56 (natural protein, human, UniProt Q9BRZ2 1-755, looked up, TRIM56, human, full length, in pMAL-C2X; also called recombinant TRIM56; not shown: MBP, N-terminal, kept) MVSHGSSPSLLEALSSDFLACKICLEQLRAPKTLPCLHTYCQDCLAQLADGGRVRCPECRETVPVPPEGVASFKTNFFVNGLLDLVKARACGDLRAGKPACALCPLVGGTSTGGPATARCLDCADDLCQACADGHRCTRQTHTHRVVDLVGYRAGWYDEEARERQAAQCPQHPGEALRFLCQPCSQLLCRECRLDPHLDHPCLPLAEAVRARRPGLEGLLAGVDNNLVELEAARRVEKEALARLREQAARVGTQVEEAAEGVLRALLAQKQEVLGQLRAHVEAAEEAARERLAELEGREQVARAAAAFARRVLSLGREAEILSLEGAIAQRLRQLQGCPWAPGPAPCLLPQLELHPGLLDKNCHLLRLSFEEQQPQKDGGKDGAGTQGGEESQSRREDEPKTERQGGVQPQAGDGAQTPKEEKAQTTREEGAQTLEEDRAQTPHEDGGPQPHRGGRPNKKKKFKGRLKSISREPSPALGPNLDGSGLLPRPIFYCSFPTRMPGDKRSPRITGLCPFGPREILVADEQNRALKRFSLNGDYKGTVPVPEGCSPCSVAALQSAVAFSASARLYLINPNGEVQWRRALSLSQASHAVAALPSGDRVAVSVAGHVEVYNMEGSLATRFIPGGKASRGLRALVFLTTSPQGHFVGSDWQQNSVVICDGLGQVVGEYKGPGLHGCQPGSVSVDKKGYIFLTLREVNKVVILDPKGSLLGDFLTAYHGLEKPRVTTMVDGRYLVVSLSNGTIHIFRVRSPDS | binds | – |
| TRIM56 (1–94) (domain or fragment, human, UniProt Q9BRZ2 1-94, looked up, TRIM56, human, RING domain, residues 1-94; in the crystal this stretch stood N-terminal on one chain with SopA (163–425); also called TRIM56 RING domain; TRIM56 RING) MVSHGSSPSLLEALSSDFLACKICLEQLRAPKTLPCLHTYCQDCLAQLADGGRVRCPECRETVPVPPEGVASFKTNFFVNGLLDLVKARACGDL | – | ~9 |
